Data on one substance can be found in paper PMC9828230.

What all share (assay): SPR; Biacore X100; biotinylated histone 3 peptides immobilised on a Biotin CAPture chip (about 10 RU); PHD finger flowed at 10 μl/min, 0.39-400 μM; 300 mM NaCl, 10 mM Tris pH 8, 0.05% Tween 20, 0.1 mM TCEP; equilibrium binding isotherm model
On the technique in general: Surface plasmon resonance follows binding to a sensor surface in real time, without labels.

Experiment [1] deals with histone 3 peptide dimethylated at lysine 4 (H3K4me2).
Experiment [2] concerns the target histone 3 peptide monomethylated at lysine 4 (H3K4me1).
In experiment [3] the target is histone 3 peptide trimethylated at lysine 4 (H3K4me3).

pKd: −log10 of the molar value.

For the substance “MtING1PHD, PHD finger of Medicago ING1 (M180-K247) (domain or fragment)”, the pKd (commonly −log10 of the Kd, conventionally taken in molar units) in experiment [1] was 4.26; in experiment [2], 3.90; in experiment [3] it was 4.51.
